Tested on: MS2 coat protein
Test: apparent KD of MS2 coat protein; designed switch direction (-1 OFF switch, 1 ON switch): -1; higher = weaker reporter binding
Method in brief: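 Stalled E. coli RNA polymerase transcribed designed RNA switches on Illumina chips, which were then titrated with SNAP-549-labelled MS2 coat protein, doubling from 0.7 or 1.5 nM to 3 µM. Steps lasted from 0.8–1.5 h at the lowest concentration to 10–20 min at the highest. The apparent KD is each design's median over clusters of curve-fitted normalised fluorescence.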

[1] = input ligand: microRNA oligo, concentration not stated
[2] = Eterna round: R95, input ligand: FMN 200 uM
[3] = Eterna round: R95, input ligand: microRNA oligo, concentration not stated
[4] = Eterna round: R95, input ligand: none

Sequence	apparent KD of MS2 coat protein (input ligand: FMN 200 uM)	apparent KD of MS2 coat protein [1]	apparent KD of MS2 coat protein (input ligand: none)	apparent KD of MS2 coat protein [2]	apparent KD of MS2 coat protein [3]	apparent KD of MS2 coat protein [4]
GUUGUUUAUGUAGGAUAUGCCUGGCGAGCCUAAGCAGAAGGACAUGAGGAUCACCCAUGUAUUGCGGUCUGCGUUCAGAUCGCU [salish99_ExNG1_r4_018] (Eterna round: R96, puzzle: Exclusion NG 1)	38.3 nM	9.94 nM	18.9 nM			
AUAAUAAUAUAGGAUAUCGAAUUAAUUAUUUAACGAGAAGGAUGAACAUGAGGAUCACCCAUGUGGUAUCAUGG [Mat - Exclusion 6 - JL Mod - D34] (puzzle: Exclusion 6)				255 nM	244 nM	317 nM
UUUAGUUCAGGAUAUGUAGAUAUUAACAUGAGGAUCACCCAUGUAGAUCCUGAAUUGACUACAGAAGGGAGCAUUU [Mod of Brourd 17 - Jieux - Exclusion 5] (Eterna round: R97, puzzle: Exclusion 5)	44.7 nM		17.7 nM			
GCCAGAGCAGGAUAUCUAAUAUGUCACAUGAGGAUCACCCAUGUCCAGCGAAAGCUGGAGGGAGAAGGGCUCUGGC [Fiskers Ex 5 - 21] (puzzle: Exclusion 5)					51.8 nM	
ACUUAUUGAGGAUAUACAUUAAAUUACAUGAGGAUCACCCAUGUUCUUCAAUGUAUAUAUGUAGAAGGCAGAAGAU [Mat - Exclusion 5 - JL Mod - D20] (Eterna round: R97, puzzle: Exclusion 5)	18.2 nM		14.4 nM			
GCGCCAUCGUGAGAUGGCGUACCAACAUGAGGAUCACCCAUGUAGGAUAUCGAUUGCUUUGCAGUCGAGAAGGGCAUGAUAAGU [JL ENG3 3.76] (Eterna round: R96, puzzle: Exclusion NG 3)		17.2 nM				
CUUCACCCACCAGAGCUCACCCACAUACCAGCUCUGGUGACAUGAGGAUCACCCAUGUUUUUUGCCCGUCUUAUCUU [Intibima] (Eterna round: R96, puzzle: Sensor v3, turn-off variant 2)	65 nM	218 nM	79.1 nM			
ACCUAACAUGAGGAUCACCCAUGUCAGGAUAUCCAAGCGAAAGCAAAAGCGAAAGCAAGGAGAAGGGACAGAGG [ChP 04-04-2015 #8] (puzzle: Exclusion 1)				62.2 nM	32.4 nM	28.4 nM
UGAUCUAGGCGAGGAUAUACAUGAGGAUCACCCAUGUAAGCGUGACAUGGAAACAUGUCACGUAUGUAGAAGGCGCCUAGAUCU [MOD ENG2 3.54 by JL] (Eterna round: R96, puzzle: Exclusion NG 2)		8.6 nM	13.3 nM			
GGCCGUAAUAAGGAUAUCACUAGCGAUAGCUAGUGAGAAGGUAUUACAUGAGGAUCACCCAUGUGAUCAGGCCA [E6/3-B3] (Eterna round: R97, puzzle: Exclusion 6)	1180 nM		176 nM			
AUUUAACAUGAGGAUCACCCAUGUGAGGAUAUGCGAGUAUAGACUUCGGUCUGAUAGAGCAGAAGGCGCAGAUA [EX1 #8] (Eterna round: R97, puzzle: Exclusion 1)	67.7 nM		55.9 nM			
CUGAGCUGAGGAUAUACAUGAGGAUCACCCAUGUUUUGUAGCUAGUGAAGAAGUAGAUGUAGAAGGCAGUUCGG [Mod of JL 25 - Jieux - Exclusion 3] (Eterna round: R97, puzzle: Exclusion 3)	167 nM		72.8 nM			
UUAAUUAAUUAAGGCUGAAGAUCACAUGAGGAUCACCCAUGUAAGGAUAUCAGCUCGUGUAGAGCUGAGAAGGUACAUGCAGCC [ExNG3/18-B3] (Eterna round: R96, puzzle: Exclusion NG 3)	50.6 nM	345 nM	336 nM			
GAGCCAUCGUGAGAUGGCUAAUAUACAUGAGGAUCACCCAUGUAGGAUAUCGAUUGCUUUGCAGUCGAGAAGGACAUGUUUAAU [JL ENG3 3.97] (Eterna round: R96, puzzle: Exclusion NG 3)	67.4 nM	26.7 nM	33.7 nM			
GAUUAUGCGAGCUUUAGGGACAUGAGGAUCACCCAUGUUCGUCUUAUUGAUCUGGAUACACUAACAUACCUAAAUCU [JMF 13] (puzzle: Sensor v3, turn-off variant 1)				26.8 nM	32.3 nM	25.2 nM
CGGUGUAGAGGAUAUACGUGAAUAUAAGAACAUAAUAAUUAACAUGAGGAUCACCCAUGUAGAAGGCUAUAGCG [JR_Ex2_Sub081] (Eterna round: R97, puzzle: Exclusion 2)	34.3 nM		16.7 nM			
CUUUUGGGAGGAUAUUAGUAGUAAAUAAAUAAAAUUACUACUGAGAAGGCACAUGAGGAUCACCCAUGUUCCUC [salish99_ex4_r3_071] (puzzle: Exclusion 4)					19.7 nM	

Sequence	apparent KD of MS2 coat protein (input ligand: FMN 200 uM)	apparent KD of MS2 coat protein [1]	apparent KD of MS2 coat protein (input ligand: none)	apparent KD of MS2 coat protein [2]	apparent KD of MS2 coat protein [3]	apparent KD of MS2 coat protein [4]
GCCAGAGCAGGAUAUCUAAUAUCUCACAUGAGGAUCACCCAUGUCUAGCGAAAGCUAGAGGGAGAAGGGCUCUGGC [Mat - Exclusion 5 - Eli mod - D93] (puzzle: Exclusion 5)				28.1 nM	29.4 nM	41.6 nM
CUCUUGUCAGGAUAUCAACGCCGCCCACAUGGGCAGCGAAAUGAGAAGGGACAUGAGGAUCACCCAUGUUAAAA [Retema] (puzzle: Exclusion 4)				30.4 nM	161 nM	218 nM
CAGUACUGAGGAUAUACAUGAGGAUCACCCAUGUGUCCCAGCUAGGAUACUAGCAAAGGUAGAAGGCAGUACUG [Mat - Exclusion 3 - Eli Mod - D15] (Eterna round: R97, puzzle: Exclusion 3)	945 nM		39.2 nM			
UUUUGGCAGGCUAUUAUUAACAUGAGGAUCACCCAUGUGCAUCCAAAAUUACUUUUAGAUCUUGCUGGUCUUAUAUA [JR_STOV1_Sub085] (Eterna round: R97, puzzle: Sensor, turn-off variant 1)	284 nM		330 nM			
GGUUGGCGAGGAUAUACAUGAGGAUCACCCAUGUGAGAGAAAAAAGUGAGAACGAAAAGUAGAAGGCGCUGACG [salish99-ex3-25] (Eterna round: R96, puzzle: Exclusion 3)	315 nM	67.5 nM	98.8 nM			
GCACGGAUGGUAGGAUAUCCUUGCGAUUAGCAAGGAGAAGGACCACAUGAGGAUCACCCAUGUACCUCAAUUAUCCUUCCGUGC [Eli exng1 - 023] (Eterna round: R96, puzzle: Exclusion NG 1)	12.7 nM	9.18 nM	15.8 nM			
GAAGAAGAGAGAAUAGAAAACAUGAGGAUCACCCAUGUGAGAAGAUGAGGGUGUAAUAGGCUUUUUGCUCGUCUUAU (puzzle: Sensor v3, turn-off variant 1)				42.7 nM	94.4 nM	56 nM
AAGCAGUCAGGAUAUCGUUAAUUUAGUUGUUUGUAUUAGUUCGAGAAGGGACAUGAGGAUCACCCAUGUAUGAA [Ex4 #42] (Eterna round: R97, puzzle: Exclusion 4)	51.5 nM		48.3 nM			
AAGAAACAUGAGGAUCACCCAUGUGAGGAUAUGACCAAGAAAAGAAAAGAAAGAAGAGUCAGAAGGCACAAAGG [salish99-ex1_r3_066] (puzzle: Exclusion 1)				99.7 nM	56.6 nM	181 nM
AAGUACCGUCACGAUAGUGAUGGUACAACAAGCAAGUGUACAUGAGGAUCACCCAUGUCCUCUUUUGCUCGUCUUAU [Sensor 3 - 95] (puzzle: Sensor v3, turn-off variant 2)				19.7 nM	16.9 nM	18.6 nM
GGUACUCAAAGAGUACCAAUACGAACAUGAGGAUCACCCAUGUAGGAUAUGCUACUCAAAGAGUAGCAGAAGGAUAUGAUCCAU [Far Half Aptamer v13] (Eterna round: R96, puzzle: Exclusion NG 3)		60.5 nM				
AGUACUAACACGAUAGUGUUAGUACAAUAAGCUUGUGAAACAUGAGGAUCACCCAUGUCCUCAUAAGCUCGUCUUAU [salish99_TOv2_r3_030] (puzzle: Sensor v3, turn-off variant 2)				14.5 nM	993 nM	14.6 nM
UUGCAGUCGUCAGGAUAUAGUAUUACGGCCAUUUAUAUUUUCAUACAUGAGGAUCACCCAUGUCGCUAGAAGGGAUUAUCGAUU [salish99_ExNG2_r04_101] (Eterna round: R96, puzzle: Exclusion NG 2)	49.7 nM	40.4 nM	53.4 nM			
CUCCGCGGAGGAUAUGCAGCCUUCGACAUGAGGAUCACCCAUGUACAAGAUCCCUUGUCGGCAGAAGGCCGGGAGA [Usena] (Eterna round: R97, puzzle: Exclusion 5)	114 nM		448 nM			
CGGCGACAUGAGGAUCACCCAUGUGAGGAUAUGACGGGAAAAGCGUGAGCAGUUUGUGGCAGAAGGCGCGUAGG [salish99_ex1_r4_083] (Eterna round: R97, puzzle: Exclusion 1)	23.5 nM		117 nM			
CCAGGCAGUGUGAGGAUAUGCUGGUGCUUGCAUCAGCAGAAGGCACAUGAGGAUCACCCAUGUGAAGAGCUUGG [Mat - Exclusion 4 - JL Mod - D97] (puzzle: Brourd's mod of Exclusion 4)					21.1 nM	
UGGUAACAUGAGGAUCACCCAUGUCAGGAUAUCAGUAAGAAGAGAUUAGAUUAGAAUAUGAGAAGGGACUAUAG [Excluse me! 2 - Jieux - Exclusion 1] (puzzle: Exclusion 1)				30.1 nM	40.3 nM	37.8 nM
